Experimental data reported in article PMC5014551 (2016).

B1: Bol1-Strep [S. cerevisiae] / dihydroxyacid dehydratase (Ilv3) [S. cerevisiae (endogenous in yeast mitochondria)] (parent complex)
chain 1: MFKRAMSTDGPVARTILKRLECGFPDYKNFAFGLYNDSHKHKGHAGVQGNVSAETHFRIEMVSKKFEGLKLPQRHRMVYSLLQDEMAQANGIHALQLSLKTPQEYESKAK
chain 2: not shown
B2: Bol3-Strep [S. cerevisiae] / dihydroxyacid dehydratase (Ilv3) [S. cerevisiae (endogenous in yeast mitochondria)] (parent complex)
chain 1: MKLPQTMLRSISVKHVRWPRILTGSKLWYSTQMAMTPEEKMITDKLQQELEPEVCKVQDVSGGCGSMFAINITSKKFNGLSLIKQHQLVNRILRDDISRWHGLQLTTKKSTGKGPASS
chain 2: not shown
B3: Bol1-Strep [S. cerevisiae] / Aco2 [S. cerevisiae (endogenous in yeast mitochondria)] (parent complex)
chain 1: B1 chain 1
chain 2: ATHANMFPSVSKNFQTKVPPYAKLLTNLDKIKQITNNAPLTLAEKILYSHLCDPEESITSSDLSTIRGNKYLKLNPDRVAMQDASAQMALLQFMTTGLNQTSVPASIHCDHLIVGKDGETKDLPSSIATNQEVFDFLESCAKRYGIQFWGPGSGIIHQIVLENFSAPGLMMLGTDSHTPNAGGLGAIAIGVGGADAVDALTGTPWELKAPKILGVKLTGKLNGWSTPKDVITKLAGLLTVRGGTGYIVEYFGEGVSTLSCTGMATICNMGAEIGATTSTFPYQEAHKRYLQATNRAEVAEAADVALNKFNFLRADKDAQYDKVIEIDLSAIEPHVNGPFTPDLSTPISQYAEKSLKENWPQKVSAGLIGSCTNSSYQDMSRVVDLVKQASKAGLKPRIPFFVTPGSEQIRATLERDGIIDIFQENGAKVLANACGPCIGQWNREDVSKTSKETNTIFTSFNRNFRARNDGNRNTMNFLTSPEIVTAMSYSGDAQFNPLTDSIKLPNGKDFKFQPPKGDELPKRGFEHGRDKFYPEMDPKPDSNVEIKVDPNSDRLQLLEPFKPWNGKELKTNVLLKVEGKCTTDHISAAGVWLKYKGHLENISYNTLIGAQNKETGEVNKAYDLDGTEYDIPGLMMKWKSDGRPWTVIAEHNYGEGSAREHAALSPRFLGGEILLVKSFARIHETNLKKQGVLPLTFANESDYDKISSGDVLETLNLVDMIAKDGNNGGEIDVKITKPNGESFTIKAKHTMSKDQIDFFKAGSAINYIGNIRRNE
B4: Bol1-Strep [S. cerevisiae] / Lip5 [S. cerevisiae (endogenous in yeast mitochondria)] (parent complex)
chain 1: B1 chain 1
chain 2: SSTIRCGTSATRPIRSNALNTDSDNASVRVPVGNSTEVENATSQLTGTSGKRRKGNRKRITEFKDALNLGPSFADFVSGKASKMILDPLEKARQNTEEAKKLPRWLKVPIPKGTNYHKLKGDVKELGLSTVCEEARCPNIGECWGGKDKSKATATIMLLGDTCTRGCRFCSVKTNRTPSKPDPMEPENTAEAIKRWGLGYVVLTTVDRDDLVDGGANHLAETVRKIKQKAPNTLVETLSGDFRGDLKMVDIMAQCGLDVYAHNLETVESLTPHVRDRRATYRQSLSVLERAKATVPSLITKTSIMLGLGETDEQITQTLKDLRNIQCDVVTFGQYMRPTKRHMKVVEYVKPEKFDYWKERALEMGFLYCASGPLVRSSYKAGEAFIENVLKKRNMK
B5: Bol1-Strep [S. cerevisiae] / Bio2 [S. cerevisiae (endogenous in yeast mitochondria)] (parent complex)
chain 1: B1 chain 1
chain 2: TKYATNAAVKSTTASSEASTLGALQYALSLDEPSHSWTKSQLKEIYHTPLLELTHAAQLQHRKWHDPTKVQLCTLMNIKSGGCSEDCKYCAQSSRNDTGLKAEKMVKVDEVIKEAEEAKRNGSTRFCLGAAWRDMKGRKSAMKRIQEMVTKVNDMGLETCVTLGMVDQDQAKQLKDAGLTAYNHNIDTSREHYSKVITTRTYDDRLQTIKNVQESGIKACTGGILGLGESEDDHIGFIYTLSNMSPHPESLPINRLVAIKGTPMAEELADPKSKKLQFDEILRTIATARIVMPKAIIRLAAGRYTMKETEQFVCFMAGCNSIFTGKKMLTTMCNGWDEDKAMLAKWGLQPMEAFKYDRS
B6: Bol1-Strep [S. cerevisiae] / Lys4 [S. cerevisiae (endogenous in yeast mitochondria)] (parent complex)
chain 1: B1 chain 1
chain 2: LKGQNLTEKIVQSYAVNLPEGKVVHSGDYVSIKPAHCMSHDNSWPVALKFMGLGATKIKNPSQIVTTLDHDIQNKSEKNLTKYKNIENFAKKHHIDHYPAGRGIGHQIMIEEGYAFPLNMTVASDSHSNTYGGLGSLGTPIVRTDAAAIWATGQTWWQIPPVAQVELKGQLPQGVSGKDIIVALCGLFNNDQVLNHAIEFTGDSLNALPIDHRLTIANMTTEWGALSGLFPVDKTLIDWYKNRLQKLGTNNHPRINPKTIRALEEKAKIPKADKDAHYAKKLIIDLATLTHYVSGPNSVKVSNTVQDLSQQDIKINKAYLVSCTNSRLSDLQSAADVVCPTGDLNKVNKVAPGVEFYVAAASSEIEADARKSGAWEKLLKAGCIPLPSGCGPCIGLGAGLLEPGEVGISATNRNFKGRMGSKDALAYLASPAVVAASAVLGKISSPAEVLSTSEIPFSGVKTEIIENPVVEEEVNAQTEAPKQSVEILEGFPREFSGELVLCDADNINTDGIYPGKYTYQDDVPKEKMAQVCMENYDAEFRTKVHPGDIVVSGFNFGTGSSREQAATALLAKGINLVVSGSFGNIFSRNSINNALLTLEIPALIKKLREKYQGAPKELTRRTGWFLKWDVADAKVVVTEGSLDGPVILEQKVGELGKNLQEIIVKGGLEGWVKSQL
B7: Bol1-Strep [S. cerevisiae] / Sdh2 [S. cerevisiae (endogenous in yeast mitochondria)] (parent complex)
chain 1: B1 chain 1
chain 2: TATTAAATHTPRLKTFKVYRWNPDEPSAKPHLQSYQVDLNDCGPMVLDALLKIKDEQDSTLTFRRSCREGICGSCAMNIGGRNTLACICKIDQNESKQLKIYPLPHMFIVKDLVPDLTNFYQQYKSIQPYLQRSSFPKDGTEVLQSIEDRKKLDGLYECILCACCSTSCPSYWWNQEQYLGPAVLMQAYRWLIDSRDQATKTRKAMLNNSMSLYRCHTIMNCTRTCPKGLNPGLAIAEIKKSLAFA
B8: Bol1-Strep [S. cerevisiae] / Isa2 [S. cerevisiae] (parent complex)
chain 1: B1 chain 1
chain 2: MQAKLLFTRLNFRRPSTTLRQFPLTCFLFHSKAFYSDLVTKEPLITPKRIINKTPGLNLSISERASNRLAEIYRNSKENLRISVESGGCHGFQYNLTLEPATKPDIKNDVKDKEFSDDLDDDDSKDIIYVLPEDKGRVIIDSKSLNILNNTTLTYTNELIGSSFKIINGSLKSSCGCGSSFDIEN
B9: Bol1-Strep [S. cerevisiae] / Aco1 [S. cerevisiae (endogenous in yeast mitochondria)] (parent complex)
chain 1: B1 chain 1
chain 2: ATVSNLTRDSKVNQNLLEDHSFINYKQNVETLDIVRKRLNRPFTYAEKILYGHLDDPHGQDIQRGVSYLKLRPDRVACQDATAQMAILQFMSAGLPQVAKPVTVHCDHLIQAQVGGEKDLKRAIDLNKEVYDFLASATAKYNMGFWKPGSGIIHQIVLENYAFPGALIIGTDSHTPNAGGLGQLAIGVGGADAVDVMAGRPWELKAPKILGVKLTGKMNGWTSPKDIILKLAGITTVKGGTGKIVEYFGDGVDTFSATGMGTICNMGAEIGATTSVFPFNKSMIEYLEATGRGKIADFAKLYHKDLLSADKDAEYDEVVEIDLNTLEPYINGPFTPDLATPVSKMKEVAVANNWPLDVRVGLIGSCTNSSYEDMSRSASIVKDAAAHGLKSKTIFTVTPGSEQIRATIERDGQLETFKEFGGIVLANACGPCIGQWDRRDIKKGDKNTIVSSYNRNFTSRNDGNPQTHAFVASPELVTAFAIAGDLRFNPLTDKLKDKDGNEFMLKPPHGDGLPQRGYDAGENTYQAPPADRSTVEVKVSPTSDRLQLLKPFKPWDGKDAKDMPILIKAVGKTTTDHISMAGPWLKYRGHLENISNNYMIGAINAENKKANCVKNVYTGEYKGVPDTARDYRDQGIKWVVIGDENFGEGSSREHAALEPRFLGGFAIITKSFARIHETNLKKQGLLPLNFKNPADYDKINPDDRIDILGLAELAPGKPVTMRVHPKNGKPWDAVLTHTFNDEQIEWFKYGSALNKIKADEKK

Variants of: B1
Assay: Strep-tag affinity purification with MS proteomics (spectral counts); parent: 4; read off a plot
For chain 1 H93C, the screen value was about 0%.

Variants of: B2
Assay: Strep-tag affinity purification with MS proteomics (spectral counts); parent: 16; read off a plot
For chain 1 H101C, the screen value was about 45%.

Variants of: B3
Assay: Strep-tag affinity purification with MS proteomics (spectral counts); parent: 0; read off a plot
chain 1 H93C was tested, and the screen value was about 0%.

Variants of: B4
Assay: as above
chain 1 H93C was tested, and the screen value was about 0%.

Variants of: B5
Assay: as above
Work on chain 1 H93C yielded a screen value of about 0%.

Variants of: B6
Assay: as above
For chain 1 H93C, the screen value was about 0%.

Variants of: B7
Assay: as above
Variant chain 1 H93C has a screen value of about 0%.

Variants of: B8
Assay: as above
With chain 1 H93C the screen value was about 0%.

Variants of: B9
Assay: Strep-tag affinity purification with MS proteomics (spectral counts); parent: 3.5; read off a plot
Work on chain 1 H93C yielded a screen value of about 1.5%.
